The data set concerns the molecule itself. The data set is described as follows: crystal structure.

B1: WlbA from Pseudomonas aeruginosa (enzyme)
chain: MASKNFALIGAAGYIAPRHMRAIKDTGNCLVSAYDINDSVGIIDSISPQSEFFTEFEFFLDHASNLKRDSATALDYVSICSPNYLHYPHIAAGLRLGCDVICEKPLVPTPEMLDQLAVIERETDKRLYNILQLRHHQAIIALKDKVAREKSPHKYEVDLTYITSRGNWYLKSWKGDPRKSFGVATNIGVHFYDMLHFIFGKLQRNVVHFTSEYKAAGYLEYEQARVRWFLSVDANDLPESVKGKKPTYRSITVNGEEMEFSEGFTDLHTTSYEEILAGRGYGIDDARHCVETVNTIRSAVIVPASDNEGHPFVAALAR
In the case of B1, the stoichiometry N (in general, a count of units in the complex or per binding partner) turned out to be 4.
